From PMC5967339, “Rhodopsin-cyclases for photocontrol of cGMP/cAMP and 2.3 Å structure of the adenylyl cyclase domain” (Nature Communications, 2018)
Each block holds one molecule with its values, some of them ahead of it.

Tests used:
CaRhGC = test: RP-HPLC of cGMP, initial rates, Hill fit; assay type: biochemical, Catenaria anguillulae; settings: GTP/Mn2+, pH 7.5, 22 °C, 522 nm light 0.010 mW mm^-2, dark activity subtracted, detergent
Source text: RP-HPLC of cGMP, initial rates, Hill fit on CaRhGC

[1] = test system: T1, Nc1ncnc2c1ncn2[C@@H]1O[C@H](COP(=O)(O)OP(=O)(O)OP(=O)(O)O)[C@@H](O)[C@H]1O; test: RP-HPLC of cAMP, initial rates, Hill fit; assay type: biochemical, Catenaria anguillulae; settings: ATP/Mn2+, pH 7.5, 22 °C
T1 construct: CaAC is a homodimer in the crystal
Source text: RP-HPLC of cAMP, initial rates, Hill fit on CaGC (mutant form: CaAC)

[2] = substrate: Nc1nc2c(ncn2[C@@H]2O[C@H](COP(=O)(O)OP(=O)(O)OP(=O)(O)O)[C@@H](O)[C@H]2O)c(=O)[nH]1; test: RP-HPLC of cGMP, initial rates, Hill fit; assay type: biochemical, Blastocladiella emersonii; settings: GTP/Mn2+, pH 7.5, 22 °C, 522 nm light 0.010 mW mm^-2, dark activity subtracted, detergent
Source text: RP-HPLC of cGMP, initial rates, Hill fit on BeRhGC

[3] = substrate: Nc1nc2c(ncn2[C@@H]2O[C@H](COP(=O)(O)OP(=O)(O)OP(=O)(O)O)[C@@H](O)[C@H]2O)c(=O)[nH]1; test: RP-HPLC of cGMP, initial rates, Hill fit; assay type: biochemical, Blastocladiella emersonii; settings: GTP/Mn2+, pH 7.5, 22 °C
Source text: RP-HPLC of cGMP, initial rates, Hill fit on BeGC

Km (CaRhGC): 6.1 ± 5.59 mM
Molecule: Nc1nc2c(ncn2[C@@H]2O[C@H](COP(=O)(O)OP(=O)(O)OP(=O)(O)O)[C@@H](O)[C@H]2O)c(=O)[nH]1 [GTP]

Molecule: CaGC (mutant form: CaAC) (Catenaria anguillulae PL171; C201D/E132K)
Km [1]: 6.09 ± 1.74 mM
kcat [1]: 60.69 min⁻¹
kcat/Km [1]: 170 M⁻¹ s⁻¹

B1: BeRhGC (Blastocladiella emersonii) (protein)
chain: MKDKDNNLRGACSSCNCPEYCFSPTSTLCDDCKCSVTKHPIVEQPLSRNGSFRSSGASLLPSPSSPNVKITSTVGLRSRKSESQANVRGSMISNSNSGSRSNNSGGAGGGSGGSSSSKGGSALANYQSAMSELWSWNMMLSTPSLKFLTVQFTTWIVLTTVGAIYTLFFHERQAYNRGWADIWYGYGAFGFGLGLSFAYMGFTGARNPEKKALSLCLLGVNFISFMSYIIIMLRLTPTIEGTMANPVEPARYLEWIATCPVLILLISEITQYPHDPYKVIVNDYALCLAGFVGAISAQQPWGDLAHFVSCLCFSYVVYSLWSCFTGAIDGETQCNVEKSGLRWIRFSTITTWSLFPITWFSYTSGLISFTVAEAGFSMIDIGAKVFLTLVLVNSTVEQAQNQKVDAITAIAEELENQINNCDAILQKMMPEGVLEQLKNGQATEAKEYESVTVFFSDITNFTVISSRTSTKDMMATLNKLWLEYDAIAKRWGVYKVETIGDAYLGVTGAPDVVPDHAERACNFAVDIIEMIKSFKTITGESINIRIGLNSGPVTAGVLGDLNPHWCLVGDTVNTASRMESTSKAGHIHISESTYHFIKSKFVTQPLDVMEVKGKGKMQTYWVLGRK
Km [2]: 0.92 ± 0.27 mM
kcat [2]: 64.3 min⁻¹
kcat/Km [2]: 1200 M⁻¹ s⁻¹

B2: BeGC (Blastocladiella emersonii) (protein)
chain: TEAKEYESVTVFFSDITNFTVISSRTSTKDMMATLNKLWLEYDAIAKRWGVYKVETIGDAYLGVTGAPDVVPDHAERACNFAVDIIEMIKSFKTITGESINIRIGLNSGPVTAGVLGDLNPHWCLVGDTVNTASRMESTSKAGHIHISESTYHFIKSKFVTQPLDVMEVKGKGKMQTYWVLGRK
Km [3]: 2.16 ± 0.30 mM
kcat [3]: 20.34 min⁻¹
kcat/Km [3]: 160 M⁻¹ s⁻¹
